In the supplement of paper PMC9112550, “Optimization of the antimicrobial peptide Bac7 by deep mutational scanning” (BMC Biology, 2022):

Test system: Escherichia coli TOP10
Test: shrunken log2 fold change of peptide-encoding DNA abundance (4.5 h post-induction vs induction); higher = less antimicrobial activity (less host growth inhibition)
Details: time post-induction: 4.5 h; library: site-saturation at positions 5, 18, 19, 20
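Also: peptides expressed intracellularly from a pBAD plasmid library in pooled LB shake-flask culture, induced with 0.3% L-arabinose, DNA abundance read by NGS, three biological replicates, DESeq2 with apeglm shrinkage.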

Sequence | shrunken log2 fold change
RRIRERPPRLPRPRPRPNPHPRP | -0.234
RRIRCRPPRLPRPRPRPCQWPRP | -0.00783
RRIRARPPRLPRPRPRPSHRPRP | 0.0188
RRIRNRPPRLPRPRPRPWSMPRP | -0.0638
RRIRFRPPRLPRPRPRPTCMPRP | -0.0546
RRIRYRPPRLPRPRPRPNCWPRP | -0.36
RRIRWRPPRLPRPRPRPRAPPRP | 0.84
RRIRDRPPRLPRPRPRPAALPRP | 0.488
RRIRSRPPRLPRPRPRPPLDPRP | 0.289
RRIRARPPRLPRPRPRPACEPRP | 0.879
RRIRERPPRLPRPRPRPVVMPRP | 0.116
RRIRRRPPRLPRPRPRPHNWPRP | -0.131
RRIRARPPRLPRPRPRPLHAPRP | 0.554
RRIRDRPPRLPRPRPRPVQEPRP | -0.0575
RRIRFRPPRLPRPRPRPCHFPRP | -0.00959
RRIRSRPPRLPRPRPRPGAGPRP | 0.445
RRIRVRPPRLPRPRPRPVRYPRP | -0.136
RRIRHRPPRLPRPRPRPMKNPRP | 0.0372
RRIRKRPPRLPRPRPRPTFYPRP | 0.11
RRIRPRPPRLPRPRPRPDNSPRP | -0.228
RRIRFRPPRLPRPRPRPQARPRP | 0.148
RRIRERPPRLPRPRPRPYNTPRP | -0.742
RRIRNRPPRLPRPRPRPVYDPRP | -0.386
RRIRDRPPRLPRPRPRPVIMPRP | -0.381
RRIRERPPRLPRPRPRPDCFPRP | 0.316

Sequence | shrunken log2 fold change
RRIRVRPPRLPRPRPRPVAQPRP | 0.247
RRIRTRPPRLPRPRPRPRLRPRP | 0.403
RRIRKRPPRLPRPRPRPRMTPRP | 0.635
RRIRFRPPRLPRPRPRPKQDPRP | 0.21
RRIRYRPPRLPRPRPRPEDPPRP | -0.0591
RRIRGRPPRLPRPRPRPSPDPRP | 0.69
RRIRVRPPRLPRPRPRPLYQPRP | -0.0431
RRIRQRPPRLPRPRPRPFYSPRP | -0.174
RRIRMRPPRLPRPRPRPSGYPRP | -0.0299
RRIRTRPPRLPRPRPRPRCDPRP | 0.13
RRIRSRPPRLPRPRPRPSELPRP | -0.215
RRIRYRPPRLPRPRPRPMHKPRP | -0.454
RRIRGRPPRLPRPRPRPELQPRP | 2.19
RRIRLRPPRLPRPRPRPIMWPRP | -0.0155
RRIRSRPPRLPRPRPRPYGNPRP | -0.621
RRIRLRPPRLPRPRPRPVWFPRP | 0.00279
RRIRHRPPRLPRPRPRPLEFPRP | 0.0369
RRIRPRPPRLPRPRPRPTPRPRP | 0.769
RRIRKRPPRLPRPRPRPQEFPRP | -0.0241
RRIRYRPPRLPRPRPRPFSYPRP | -0.145
RRIRHRPPRLPRPRPRPCGLPRP | -0.0199
RRIRKRPPRLPRPRPRPWNNPRP | 0.0165
RRIRWRPPRLPRPRPRPFDIPRP | -0.838
RRIRERPPRLPRPRPRPAPRPRP | 0.734
RRIRLRPPRLPRPRPRPYVWPRP | -0.872

Sequence | shrunken log2 fold change
RRIRSRPPRLPRPRPRPCTTPRP | -0.135
RRIRFRPPRLPRPRPRPPRDPRP | 1
RRIRLRPPRLPRPRPRPQDRPRP | 0.128
RRIRIRPPRLPRPRPRPRADPRP | 0.0888
RRIRTRPPRLPRPRPRPKLCPRP | 0.0416
RRIRVRPPRLPRPRPRPLALPRP | -0.181
RRIRARPPRLPRPRPRPWMCPRP | -0.12
RRIRNRPPRLPRPRPRPAMFPRP | -0.204
RRIRDRPPRLPRPRPRPNAFPRP | -0.0726
RRIRDRPPRLPRPRPRPIHCPRP | -0.135
RRIRMRPPRLPRPRPRPSTCPRP | -0.0128
RRIRARPPRLPRPRPRPGTTPRP | 0.143
RRIRPRPPRLPRPRPRPWFVPRP | -0.25
RRIRNRPPRLPRPRPRPEVQPRP | 0.0358
RRIRTRPPRLPRPRPRPLCPPRP | -0.165
RRIRLRPPRLPRPRPRPCPYPRP | 0.0232
RRIRMRPPRLPRPRPRPCEFPRP | 0.00328
RRIRMRPPRLPRPRPRPGMYPRP | 0.124
RRIRYRPPRLPRPRPRPIFMPRP | -0.269
RRIRVRPPRLPRPRPRPCNTPRP | -0.586
RRIRGRPPRLPRPRPRPAFNPRP | 0.2
RRIRWRPPRLPRPRPRPFWRPRP | 0.111
RRIRWRPPRLPRPRPRPKWSPRP | 0.272
RRIRFRPPRLPRPRPRPGNIPRP | -0.0525
RRIRHRPPRLPRPRPRPGVAPRP | 0.207
